Data: PMC7913698, “RPA complexes in Caenorhabditis elegans meiosis; unique roles in replication, meiotic recombination and apoptosis” (Nucleic Acids Research, 2021)

Columns and labels:
Test in all cases: single-molecule pull-down (SiMPull, TIRF microscopy); whole worm lysate of the triple-tagged strain; biotinylated antibody against the tag of one subunit (anti-OLLAS, anti-FLAG or anti-MYC) tethered to the neutravidin surface captures complexes; Cy3- and Cy5-labelled antibodies against the tags detect the subunits; track counts after wash, summed over fields of view; controls: Pre-Ab and untagged wild-type lysate
[1] = target: 3XFLAG::RPA-2 (C. elegans) (UniProt Q95Y97)
MYC::RPA-4 (C. elegans) = target: MYC::RPA-4 (C. elegans)
[2] = target: OLLAS::RPA-1 (C. elegans) (UniProt Q19537)
[3] = target: the molecule itself

Molecule	pulldown counts [1]	pulldown counts (MYC::RPA-4 (C. elegans))	pulldown counts [2]	pulldown counts [3]
MYC::RPA-4 (natural protein)	206 counts	2300 counts	1810 counts	–
OLLAS::RPA-1 (natural protein, C. elegans, UniProt Q19537 1-655, looked up, also called OLLAS-tagged RPA-1; CeRPA large subunit; source: endogenous locus tagged by CRISPR/Cas9, C. elegans whole worm lysate; not shown: OLLAS, N-terminal, kept) MAAIHINHDVFNKYHTNGKLRLTTGYVQEAIENNGYPGHDGIVQVLKGKVEQGEQLGHAFTFRIRISDGVFQYNALMSADIDDQIKREVEHLVEGTIIALTKFEIYDQGEGAKNCFLIKGYKILSRYHQVLTSPEVKPRSHSGKPDEHKGYRPNIIIEDVWPEAEGMAADYQENMANPPAAKAPKREFGEEASYNRAAAPEATRARAVPPPARRTASNTERGVMPIAMVTPYVSNFKIHGMVSRKEEIRTFPAKNTKVFNFEITDSNGDTIRCTAFNEVAESLYTTITENLSYYLSGGSVKQANKKFNNTGHDYEITLRSDSIIEAGGELLAAPKLILKRVKLGEIAGYAGQLIDVLVVVEKMDPEATEFTSKAGKSLIKREMELIDESGALVRLTLWGDEATKALVDDYVQKVIAFKGVIPREFNGGFSLGTGSATRIISVPEIAGVSELYDWYANVKPTTEVKMMSQAAGGSNEAPRTIAGLQEMQFGKDSDKGDYATVKAMITRVNPTNALYRGCASEGCQKKLVGENGDYRCEKCNKNMNKFKWLYMMQFELSDETGQVYVTAFGDSAAKIVGKSAAELGELHDESPDEYNAIFERLQFVPKMWRLRCKMDSYNEEVRQKMTVYGVDDVNQDKYIENLKQMIEQMQQMSDY	–	100 counts	–	1060 counts
3XFLAG::RPA-2 (natural protein, C. elegans, UniProt Q95Y97 1-288, looked up, also called 3XFLAG-tagged RPA-2; source: endogenous locus tagged by CRISPR/Cas9, C. elegans whole worm lysate; not shown: 3xFLAG, N-terminal, kept) MWNETVEHENAGNGWAAGESSFMTDRKPDSKATTLGERLPVPVTISNLIEHFSAQDDKYVVGTFRFATVLTVGIVKDISQDGTTYTYDLCDPNNTEMEYRTLKYDNEGSTFDHSSIVEGTRVRAIGKLKGFDGNNTIMLFNITPVEDDKDFTIFELEAEAARLFFQKNVSEKLKSVDSDGFQGMLAPPKSRMSQTSHQSSQGSDTKERLYAQPQKVMTGANQGDVLRERITAVLMAVPEGSRDEGRHVSWIAEQIQETNISIVRKCVGEMVENGLVYTTVDEETVSAI	–	–	–	724 counts
